± gives the standard deviation of the averaged measurements.

Results on 62 sequences are retold here after the supplement of paper PMC10724198.

The subject of series [1] is Saccharomyces cerevisiae. Briefly: protein stability index of tFT-peptide fusion in deletion strain of DAS1 (PSI (0-1 scale)); higher = more stable (slower turnover). The procedure:
(§1)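 MPS profiling in S. cerevisiae of two library types built from selected 12-aa C-degron peptides (IN1, IN2, LN1, LN3, VN2, R1-R5, W1-W3, Atg1 and Rpa12 C-termini): saturation mutagenesis libraries and C-terminal +1 capping libraries (13 aa). Each peptide is fused to the C-terminus of a sfGFP-mCherry timer, after a GGGS linker. Cells are FACS-sorted into 8 mCherry/sfGFP bins and sequenced. PSI runs from 0 (unstable) to 1 (stable), measured once in wild type and in the das1Δ or doa10Δ background.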

The subject of series [2] is Saccharomyces cerevisiae. Description: protein stability index of tFT-peptide fusion in wild type (PSI (0-1 scale)); higher = more stable (slower turnover). To be noted: genetic background: wild type. On the procedure:
as §1

Series [3] concerns Saccharomyces cerevisiae. Description: protein stability index of tFT-peptide fusion (C-terminal peptide) (PSI (0-1 scale)); higher = more stable (slower turnover). The note with it: temperature: 30 C. On the procedure:
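MPS profiling in S. cerevisiae of the yeast C-terminome library: the last 12 aa of each annotated ORF are fused to the C-terminus of a sfGFP-mCherry timer, after a GGGS linker. Cells are FACS-sorted into 8 mCherry/sfGFP bins and deep-sequenced. PSI runs from 0 (unstable) to 1 (stable); wild type and das1Δ backgrounds, two technical replicates each.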

The mark [4] stands for this setting: genetic background: das1 deletion.
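For protein stability index of tFT-peptide fusion in deletion strain of DAS1 in this document: PSI is a weighted mean of each variant's read distribution over the sorted stability bins, computed only for variants having over 10 reads in total.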
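For protein stability index of tFT-peptide fusion in wild type in this document: PSI derived as read-weighted mean over the 8 sorting bins, only variants exceeding 10 total reads kept, mCherry placed adjacent to the peptide and sfGFP distal.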

Consider ACWRVGLWRGAS, for which the protein stability index is 0.694 with Saccharomyces cerevisiae [1] and 0.445 in the series on Saccharomyces cerevisiae [2].
On to AGWRVGLWRGAS, for which the protein stability index in the series with Saccharomyces cerevisiae [1] was found to be 0.722; with Saccharomyces cerevisiae [2] it was 0.424.
Taken in the same sequence, the figures for ALIQPLPVQFLN were 0.649 and 0.101.
Taken in the same sequence, the figures for ALWRVGLWRGAS were 0.707 and 0.464.
On the same counts, the results for ARGAVGGWRLVG are 0.653 and 0.172.
As to ARWIVGLWRGAS, the protein stability index was 0.684 with Saccharomyces cerevisiae [1] and 0.398 in the series on Saccharomyces cerevisiae [2].
Taken in the same sequence, the figures for ARWMVGLWRGAS were 0.709 and 0.449.
For the sequence ARWRAGLWRGAS, the protein stability index with Saccharomyces cerevisiae [1] came out at 0.7; in the series on Saccharomyces cerevisiae [2], 0.653.
On the same counts, the results for ARWRIGLWRGAS are 0.671 and 0.327.
For ARWRVALWRGAS, the values for the protein stability index in the series on Saccharomyces cerevisiae [1] and in the series with Saccharomyces cerevisiae [2] were 0.671 and 0.254, respectively.
On the same counts, the results for ARWRVCLWRGAS are 0.705 and 0.397.
On the same counts, the results for ARWRVGLERGAS are 0.7 and 0.661.
On the same counts, the results for ARWRVGLGRGAS are 0.679 and 0.456.
As for ARWRVGLKRGAS, the protein stability index in the series on Saccharomyces cerevisiae [1] was determined as 0.663; with Saccharomyces cerevisiae [2], 0.627.
For the sequence ARWRVGLWFGAS, the protein stability index in the series on Saccharomyces cerevisiae [1] amounted to 0.666; with Saccharomyces cerevisiae [2], 0.626.
Taken in the same sequence, the figures for ARWRVGLWRFAS were 0.675 and 0.101.
For ARWRVGLWRGAA, the protein stability index in the series on Saccharomyces cerevisiae [1] came out at 0.675; in the series with Saccharomyces cerevisiae [2] it was 0.17.
On the same counts, the results for ARWRVGLWRGAI are 0.685 and 0.529.
On the same counts, the results for ARWRVGLWRGASH are 0.685 and 0.66.
On the same counts, the results for ARWRVGLWRGASM are 0.639 and 0.651.
As to ARWRVGLWRGASR, the protein stability index in the series on Saccharomyces cerevisiae [1] turned out to be 0.676; with Saccharomyces cerevisiae [2], 0.663.
On the same counts, the results for ARWRVGLWRGASW are 0.71 and 0.67.
ARWRVGLWRGPS: the protein stability index with Saccharomyces cerevisiae [1] amounted to 0.69; in the series on Saccharomyces cerevisiae [2], 0.672.
With ARWRVGLWSGAS, the protein stability index in the series on Saccharomyces cerevisiae [1] turned out to be 0.693; in the series with Saccharomyces cerevisiae [2] it was 0.67.
ARWRVGLWTGAS: the protein stability index with Saccharomyces cerevisiae [1] worked out at 0.677; in the series with Saccharomyces cerevisiae [2], 0.664.
On the same counts, the results for ARWRVGWWRGAS are 0.701 and 0.405.
On to ARWRVWLWRGAS, for which the figures for the protein stability index in the series with Saccharomyces cerevisiae [1] and with Saccharomyces cerevisiae [2] were 0.711 and 0.341, respectively.
Taken in the same sequence, the figures for ARWVVGLWRGAS were 0.694 and 0.39.
Consider ARWYVGLWRGAS, for which the protein stability index with Saccharomyces cerevisiae [1] is 0.696; in the series on Saccharomyces cerevisiae [2] it was 0.469.
For CCSCGYKFRTNN, the protein stability index is 0.681 in the series with Saccharomyces cerevisiae [1] and 0.226 in the series with Saccharomyces cerevisiae [2].
On the same counts, the results for CSLAASFWRVVG are 0.69 and 0.125.
On to CTACGYKFRTNN, for which the protein stability index in the series with Saccharomyces cerevisiae [1] is 0.676; in the series with Saccharomyces cerevisiae [2] it was 0.259.
On the same counts, the results for CTDCGYKFRTNN are 0.662 and 0.254.
Taken in the same sequence, the figures for CTHCGYKFRTNN were 0.709 and 0.264.
Taken in the same sequence, the figures for CTSCGGKFRTNN were 0.675 and 0.61.
For the sequence CTSCGYAFRTNN, the protein stability index in the series on Saccharomyces cerevisiae [1] was determined as 0.697; in the series on Saccharomyces cerevisiae [2], 0.226.
Take CTSCGYKFFTNN: the protein stability index in the series on Saccharomyces cerevisiae [1] is 0.727; in the series on Saccharomyces cerevisiae [2], 0.347.
As for CTSCGYKFNTNN, the figures for the protein stability index with Saccharomyces cerevisiae [1] and in the series with Saccharomyces cerevisiae [2] were 0.722 and 0.42, respectively.
Taken in the same sequence, the figures for CTSCGYKFRFNN were 0.699 and 0.303.
Taken in the same sequence, the figures for CTSCGYKFRRNN were 0.703 and 0.49.
On to CTSCGYKFRTEN, for which the protein stability index in the series with Saccharomyces cerevisiae [1] is 0.725; in the series on Saccharomyces cerevisiae [2] it was 0.45.
Taken in the same sequence, the figures for CTSCGYKFRTIN were 0.698 and 0.148.
Turning to CTSCGYKFRTKN, the protein stability index in the series on Saccharomyces cerevisiae [1] is 0.702; in the series on Saccharomyces cerevisiae [2], 0.631.
Taken in the same sequence, the figures for CTSCGYKFRTNA were 0.697 and 0.266.
For CTSCGYKFRTND, the figures for the protein stability index in the series on Saccharomyces cerevisiae [1] and with Saccharomyces cerevisiae [2] were 0.695 and 0.7, respectively.
For the sequence CTSCGYKFRTNN, the protein stability index in the series with Saccharomyces cerevisiae [1] is 0.691; in the series on Saccharomyces cerevisiae [2] it was 0.247.
Turning to CTSCGYKFRTNNF, the protein stability index with Saccharomyces cerevisiae [1] came to 0.712; with Saccharomyces cerevisiae [2], 0.711.
On the same counts, the results for CTSCGYKFRTNNG are 0.69 and 0.683.
For YNPPDYEPEAKK [PHM7 C-terminal 12 aa], the protein stability index was determined as 0.6998 ± 0.0052 in the series with Saccharomyces cerevisiae [3] (setting [4]) and 0.639 ± 0.008 with Saccharomyces cerevisiae [3] (genetic background: wild type).
With YPKFIKGHEEYF [BSC6 C-terminal 12 aa], the protein stability index in the series with Saccharomyces cerevisiae [3] (setting [4]) stood at 0.702 ± 0.035; with Saccharomyces cerevisiae [3] (genetic background: wild type), 0.715 ± 0.0089.
Turning to YRDDPNQKNYKD [MSS4 C-terminal 12 aa], the protein stability index turned out to be 0.6905 ± 0.0037 in the series with Saccharomyces cerevisiae [3] (setting [4]) and 0.749 ± 0.081 in the series on Saccharomyces cerevisiae [3] (genetic background: wild type).
Taken in the same sequence, the figures for YSINPDEIELDI [SYF1 C-terminal 12 aa] were 0.707 ± 0.025 and 0.698 ± 0.029.
On to YSLLIHLSKKKS [YNR005C C-terminal 12 aa], for which the values for the protein stability index with Saccharomyces cerevisiae [3] (setting [4]) and with Saccharomyces cerevisiae [3] (genetic background: wild type) were 0.668 ± 0.025 and 0.6119 ± 0.0036, respectively.
As to YSSDSSTLHSKV [FIG1 C-terminal 12 aa], the values for the protein stability index in the series with Saccharomyces cerevisiae [3] (setting [4]) and in the series with Saccharomyces cerevisiae [3] (genetic background: wild type) were 0.7 ± 0.021 and 0.6859 ± 0.0017, respectively.
For the sequence YSSRRWRLDTHD [RTC4 C-terminal 12 aa], the protein stability index in the series with Saccharomyces cerevisiae [3] (setting [4]) was 0.763 ± 0.034; in the series with Saccharomyces cerevisiae [3] (genetic background: wild type), 0.752 ± 0.058.
With YSWMQPESGWNP [YER188W C-terminal 12 aa], the protein stability index with Saccharomyces cerevisiae [3] (setting [4]) is 0.738 ± 0.011; with Saccharomyces cerevisiae [3] (genetic background: wild type), 0.722 ± 0.032.
On the same counts, the results for YSYSSPKYTFPC [YKL147C C-terminal 12 aa] are 0.6967 ± 0.0022 and 0.669 ± 0.063.
On the same counts, the results for YTTVLSSQSSKL [PEX8 C-terminal 12 aa] are 0.783 ± 0.013 and 0.855 ± 0.091.
On the same counts, the results for YVIHLDQIDRDL [YLR269C C-terminal 12 aa] are 0.714 ± 0.0093 and 0.699 ± 0.028.
YVTYSGENTFGR [ATG8 C-terminal 12 aa]: the protein stability index with Saccharomyces cerevisiae [3] (setting [4]) was 0.703 ± 0.025; with Saccharomyces cerevisiae [3] (genetic background: wild type), 0.691 ± 0.021.
On to YVVKGWCDSRFL [GIS3 C-terminal 12 aa], for which the protein stability index with Saccharomyces cerevisiae [3] (setting [4]) turned out to be 0.72 ± 0.01; with Saccharomyces cerevisiae [3] (genetic background: wild type) it was 0.701 ± 0.016.
Regarding YYYKNSYWPSHI [VPS36 C-terminal 12 aa], the values for the protein stability index in the series on Saccharomyces cerevisiae [3] (setting [4]) and in the series with Saccharomyces cerevisiae [3] (genetic background: wild type) were 0.6935 ± 0.0058 and 0.701 ± 0.027, respectively.
